This data set has as its target DNA polymerase alpha catalytic domain (hPolα, hPolαCD) (human, UniProt P09884 335-1257). As to the kind of experiment: BLI. A general note: BLI is a label-free optical method that tracks binding on a fibre tip over time.

DNA polymerase alpha catalytic domain (hPolα, hPolαCD), sequence (P09884 335-1257): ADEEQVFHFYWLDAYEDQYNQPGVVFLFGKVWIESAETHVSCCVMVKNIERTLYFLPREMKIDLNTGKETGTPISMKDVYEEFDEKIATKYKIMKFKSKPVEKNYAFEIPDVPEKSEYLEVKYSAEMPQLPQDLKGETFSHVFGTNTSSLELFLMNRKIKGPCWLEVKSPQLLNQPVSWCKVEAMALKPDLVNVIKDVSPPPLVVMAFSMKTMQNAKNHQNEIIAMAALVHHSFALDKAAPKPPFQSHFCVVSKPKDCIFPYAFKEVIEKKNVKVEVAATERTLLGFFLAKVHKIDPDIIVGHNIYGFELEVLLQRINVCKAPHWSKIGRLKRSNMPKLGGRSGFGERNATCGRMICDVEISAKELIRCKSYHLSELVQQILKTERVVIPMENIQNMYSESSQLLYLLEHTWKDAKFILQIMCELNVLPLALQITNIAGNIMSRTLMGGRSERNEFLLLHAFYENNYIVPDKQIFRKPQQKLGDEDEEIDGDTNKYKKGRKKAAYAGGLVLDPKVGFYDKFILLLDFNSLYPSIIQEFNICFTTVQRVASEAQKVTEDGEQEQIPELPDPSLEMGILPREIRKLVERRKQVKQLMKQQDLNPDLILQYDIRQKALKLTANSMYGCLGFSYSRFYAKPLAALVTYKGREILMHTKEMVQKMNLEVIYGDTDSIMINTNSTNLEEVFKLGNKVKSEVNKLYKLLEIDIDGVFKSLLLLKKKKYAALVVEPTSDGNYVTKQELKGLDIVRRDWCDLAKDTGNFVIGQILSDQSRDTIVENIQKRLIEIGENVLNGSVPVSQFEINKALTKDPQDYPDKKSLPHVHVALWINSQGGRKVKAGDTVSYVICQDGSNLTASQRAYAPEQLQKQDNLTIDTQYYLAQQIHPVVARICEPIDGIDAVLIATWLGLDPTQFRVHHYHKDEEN

B1: T8:P9 (D11) (dsDNA)
DNA 1: AATACATAAACGCTCCAGGCAAT
DNA 2: GCCTGGAGCGC
modifications: primer 3' ddC
In the case of B1, binding was characterised by a dissociation constant (Kd) of 1880 ± 33 nM.

B2: T7:P12 (R8-D3) (mixed)
DNA: AATACATAATCGCTCCAGGCAAT
RNA: GCCUGGAGCGC
modifications: primer nt 1-8 RNA, nt 9-11 DNA, 3' ddC
Consider B2, for which the Kd (in general, the constant that tells how readily two partners part at equilibrium) stood at 198 ± 9.2 nM.

B3: T6:P12 (R8-D3) (mixed)
DNA: AATACATAAGCGCTCCAGGCAAT
RNA: GCCUGGAGCGC
modifications: primer nt 1-8 RNA, nt 9-11 DNA, 3' ddC
B3 showed a Kd of 11.3 ± 0.69 nM.

B4: T7:P9 (D11) (dsDNA)
DNA 1: AATACATAATCGCTCCAGGCAAT
DNA 2: GCCTGGAGCGC
modifications: primer 3' ddC
For the molecule B4, the Kd is 1130 ± 94 nM.

B5: T6:P9 (D11) (dsDNA)
DNA 1: AATACATAAGCGCTCCAGGCAAT
DNA 2: GCCTGGAGCGC
modifications: primer 3' ddC
B5 came in with a Kd of 146 ± 17 nM.

B6: T8:P12 (R8-D3) (mixed)
DNA: AATACATAAACGCTCCAGGCAAT
RNA: GCCUGGAGCGC
modifications: primer nt 1-8 RNA, nt 9-11 DNA, 3' ddC
Take B6: the affinity, expressed as Kd, was 730 ± 51 nM.

For the origin of these results see PMC9757036.
